Measurements published in patent publication US7611721B1, “Adjuvant combination formulations” (priority 2000, dated 2009).

Assays:
[1] = system: Neisseria gonorrhoeae Porin B protein; assay: Vaginal wash anti-Porin B protein IgG and IgA titers; type: in vivo, Swiss-Webster mice; conditions: Experiment 11; Swiss-Webster; starting dilution 1/5
Protocol: (§1) Outbred Swiss-Webster mice were divided into six groups of five mice each. Each group received 1 μg of recombinant Porin B protein (from strain FA1090 with 16 amino acids at the amino-terminus from a phage, followed by the mature form of the Porin B protein). […] Mice were immunized subcutaneously in the rump with a total volume of 0.2 ml. Immunizations were administered at week 0 and week 4.
(§2) Mice were bled the day prior to each immunization, and at 13 days after the final immunization. Serum was analyzed from pools from mice within groups. […] All day 0 pre-immunization titers were less than 50. The starting dilution for vaginal lavage analysis was 1/5.

[2] = system: Neisseria gonorrhoeae Porin B protein; assay: Reciprocal anti-Porin B protein serum IgG endpoint subclass titers; type: in vivo, Swiss-Webster mice; conditions: Experiment 11; pooled serum n=5 Swiss-Webster; 1 μg Porin B s.c. week 0 and 4
Protocol: as §1, with “five” for “six”, “ten” for “five”, “ml, divided equally into each of two sites at the base of the tail/rump.” for “ml.”
Mice were bled the day prior to each immunization, and at 13 days after the final immunization. Serum was analyzed from pools from mice within groups. […] All day 0 pre-immunization titers were less than 50.
Individual week 6 IgG titer geometric means against the recombinant Porin B protein were also determined.
as §1, §2

T1SP10MN(A) (−Cys) [3] = conditions: Experiment 3, 14 days after second immunization
Protocol: (§3) The protocols of Experiment 2 were followed, with Swiss-Webster mice used instead of Balb/c mice. Only reciprocal anti-peptide IgG endpoint titers and vaginal lavage endpoint reciprocal endpoint IgG and IgA antibody titers were measured in this experiment.
Reciprocal anti-T1SP10MN(A) (−Cys) IgG endpoint titers were measured from geometric means from individual Swiss-Webster mice (GMT), obtained 14 days after the second immunization. IgG1 and IgG2a subclass endpoint titers were also measured from pooled serum. For recipients of Freund's adjuvants, mice were primed with peptide emulsified in CFA, and boosted with IFA. […] Aqueous MPL™ was delivered at 50 μg per dose. Recombinant murine IL-12 was delivered at 40 ng/mouse. Recombinant murine GM-CSF was delivered at 10 μg/mouse.

T1SP10MN(A) (−Cys) [4] = system: T1SP10MN(A) (−Cys)
Protocol: Mice were immunized subcutaneously in the rump, in a total volume of 0.2 ml equally divided on each side of the tail. Immunizations were administered at varying time intervals, as indicated below. Antigen and cytokines were diluted in phosphate buffered saline to the appropriate concentrations and formulated with adjuvants less than 16 hours prior to immunization, under sterile conditions. Vaccines were mixed by gentle agitation, and stored at 4° C. Formulations were mixed by vortex immediately prior to immunization.
Animals were bled prior to initial immunization, and at indicated time points. Serum was analyzed from individual mice, or as pools from mice within groups.
For analysis of HIV peptide-specific antibody and subclass distribution, peptide was suspended in either carbonate buffer (15 mM Na2CO3, 35 mM NaHCO3, pH 9.6), or PBS, at a concentration of 1 μg/ml and plated to 96 well microtiter plates (Nunc) in a volume of 100:1. After overnight incubation at 37° C., plates were washed, and blocked (0.1% gelatin/PBS) at room temperature for 2-4 hours. ELISA plates were washed with wash buffer (PBS, 0.1% Tween™20) before addition of serially diluted serum (PBS, 0.1% gelatin, 0.05% Tween™20, 0.02% sodium azide). After a four hour incubation, wells were washed and appropriate dilutions of biotinylated anti-isotype/subclass antibodies were added for incubation at 4° C. overnight. Wells were washed and incubated with strepavidin-conjugated horseradish peroxidase. After incubation, wells were washed, and developed with ABTS. Wells were read at 405 nm. Titers were standardized using control sera.
Reciprocal anti-HIV peptide-specific IgG endpoint titers were measured from pooled serum (n=5 Balb/c) at the indicated time points after initial immunization. Mice were immunized subcutaneously in the rump with 25 μg of T1SP10MN(A) (−Cys), unless otherwise indicated, on day 0, and on day 27. For recipients of Freund's adjuvants, mice were primed with peptide emulsified in CFA, and boosted with IFA. MPL™ SE was provided as an emulsion containing 2% squalene oil and 50 μg MPL™ per dose. SE is an oil-in-water emulsion vehicle consisting of squalene, glycerol, and an emulsifying agent. Recombinant murine IL-12 was delivered at 50 ng/mouse. Recombinant murine GM-CSF was delivered at 10 μg/mouse.
Reciprocal endpoint IgG subclass titers were measured from pooled serum (n=5 Balb/c) six weeks after initial immunization, two weeks after secondary immunization. Mice were immunized subcutaneously in the rump with 25 μg of peptide, unless otherwise indicated. For recipients of Freund's adjuvants, mice were primed with peptide emulsified in complete Freund's adjuvant, and boosted with incomplete Freund's adjuvant on weeks four and six. MPL™ SE was provided as an emulsion containing 2% squalene oil and 50 μg MPL™ per dose. SE is an oil-in-water emulsion vehicle consisting of squalene, glycerol, and an emulsifying agent. Recombinant murine IL-12 was delivered at 50 ng/mouse. Recombinant murine GM-CSF was delivered at 10 μg/mouse.
Mice were immunized subcutaneously in the rump, in a total volume of 0.2 ml equally divided on each side of the tail. Immunizations were administered on days 0 and 21 with 25 μg of the HIV peptide, together with the indicated amount of adjuvant(s).
Reciprocal anti-peptide IgG endpoint titers were measured from either geometric means from individual mice (GMT) or from pooled serum (n=5 Balb/c), obtained 14 days after the second immunization. IgG1 and IgG2a subclass endpoint titers were also measured from pooled serum.

RSV F protein = conditions: Experiment 14; pooled serum n=5 Balb/c; 3 μg F protein s.c. week 0 and 4
T1SP10MN(A) (−Cys) [5] = conditions: Experiment 3; pooled, n=5 Swiss-Webster; 15 days after secondary immunization
Protocol: as §3
Aqueous MPL™ was delivered at 50 μg per dose. Recombinant murine IL-12 was delivered at 40 ng/mouse. Recombinant murine GM-CSF was delivered at 10 μg/mouse.

[6] = Experiment 1, pooled serum n=5 Balb/c, 25 μg peptide s.c. day 0 and 27
[7] = Experiment 1, pooled serum n=5 Balb/c, six weeks after initial, two weeks after secondary immunization, 25 μg peptide
[8] = Experiment 2, pooled serum n=5 Balb/c, 14 days after second immunization
[9] = Experiment 4, individual Balb/c mouse, day 41, 13 days after secondary immunization (days 0 and 28)
[10] = Experiment 4, pooled serum n=5 Balb/c, day 41, 13 days after secondary immunization

Chain of RSV F protein (P03420 137-574): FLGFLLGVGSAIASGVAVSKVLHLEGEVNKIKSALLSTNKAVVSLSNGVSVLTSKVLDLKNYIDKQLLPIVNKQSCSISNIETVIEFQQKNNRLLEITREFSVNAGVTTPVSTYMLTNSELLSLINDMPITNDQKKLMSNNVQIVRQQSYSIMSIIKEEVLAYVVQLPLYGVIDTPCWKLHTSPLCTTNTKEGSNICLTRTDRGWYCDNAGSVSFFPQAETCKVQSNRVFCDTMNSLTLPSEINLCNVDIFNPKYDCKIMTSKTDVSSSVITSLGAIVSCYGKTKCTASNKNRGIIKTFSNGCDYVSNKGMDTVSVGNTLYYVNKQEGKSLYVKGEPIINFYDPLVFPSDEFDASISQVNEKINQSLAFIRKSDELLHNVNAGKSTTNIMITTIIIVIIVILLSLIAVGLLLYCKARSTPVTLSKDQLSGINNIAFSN

B1: rIL-12: Recombinantly expressed murine IL-12 (Genetics Institute) (protein, UniProt P43431 23-215; P43432 23-335, looked up)
Interleukin-12 subunit alpha: RVIPVSGPARCLSQSRNLLKTTDDMVKTAREKLKHYSCTAEDIDHEDITRDQTSTLKTCLPLELHKNESCLATRETSSTTRGSCLPPQKTSLMMTLCLGSIYEDLKMYQTEFQAINAALQNHNHQQIILDKGMLVAIDELMQSLNHNGETLRQKPPVGEADPYRVKMKLCILLHAFSTRVVTINRVMGYLSSA
Interleukin-12 subunit beta: MWELEKDVYVVEVDWTPDAPGETVNLTCDTPEEDDITWTSDQRHGVIGSGKTLTITVKEFLDAGQYTCHKGGETLSHSHLLLHKKENGIWSTEILKNFKNKTFLKCEAPNYSGRFTCSWLVQRNMDLKFNIKSSSSSPDSRAVTCGMASLSAEKVTLDQRDYEKYSVSCQEDVTCPTAEETLPIELALEARQQNKYENYSTSFFIRDIIKPDPPKNLQMKPLKNSQVEVSWEYPDSWSTPHSYFSLKFFVRIQRKKEKMKETEEGCNQKGAFLVEKTSTEVQCKGGNVCVQAQDRYYNSSCSKWACVPCRVRS
Vaginal Wash IgA titer, anti-Porin B Protein [1]: 5
Vaginal Wash IgG titer, anti-Porin B Protein [1]: 93
Reciprocal anti-Porin B Protein IgG1 endpoint titer, Week 3 [2]: 2,578
Reciprocal anti-Porin B Protein IgG1 endpoint titer, Week 6 [2]: 6,278
Reciprocal anti-Porin B Protein IgG2a endpoint titer, Week 3 [2]: 2,071
Reciprocal anti-Porin B Protein IgG2a endpoint titer, Week 6 [2]: 58,552
Reciprocal anti-Porin B Protein IgG endpoint titer, Week 3 [2]: 7,266
Reciprocal anti-Porin B Protein IgG endpoint titer, Week 6 [2]: 571,325
Reciprocal anti-HIV peptide IgG (GMT) endpoint titer (T1SP10MN(A) (−Cys) [3]; individual Swiss-Webster mice): 500
Reciprocal anti-HIV peptide IgG1 (pool) endpoint titer (T1SP10MN(A) (−Cys) [3]; pooled serum Swiss-Webster): <1000
Reciprocal anti-HIV peptide IgG2a (pool) endpoint titer (T1SP10MN(A) (−Cys) [3]; pooled serum Swiss-Webster): <1000
Reciprocal anti-T1SP10MN(A) (-Cys) IgG endpoint titer, WEEK 4 (T1SP10MN(A) (−Cys) [4]; [6]): <100
Reciprocal anti-T1SP10MN(A) (-Cys) IgG endpoint titer, WEEK 6 (T1SP10MN(A) (−Cys) [4]; [6]): <100
Reciprocal anti-T1SP10MN(A) (-Cys) IgG endpoint titer, WEEK 8 (T1SP10MN(A) (−Cys) [4]; [6]): <100
Reciprocal anti-T1SP10MN(A) (-Cys) IgG1 endpoint titer (T1SP10MN(A) (−Cys) [4]; [7]): <100
Reciprocal anti-T1SP10MN(A) (-Cys) IgG2a endpoint titer (T1SP10MN(A) (−Cys) [4]; [7]): <100
Reciprocal anti-T1SP10MN(A) (-Cys) IgG2b endpoint titer (T1SP10MN(A) (−Cys) [4]; [7]): <100
Reciprocal anti-T1SP10MN(A) (−Cys) IgG (GMT) endpoint titer (T1SP10MN(A) (−Cys) [4]; Experiment 2, geometric mean of individual Balb/c mice, 14 days after second immunization): 500
Reciprocal anti-T1SP10MN(A) (−Cys) IgG1 (pool) endpoint titer (T1SP10MN(A) (−Cys) [4]; [8]): <1000
Reciprocal anti-T1SP10MN(A) (−Cys) IgG2a (pool) endpoint titer (T1SP10MN(A) (−Cys) [4]; [8]): <1000
Reciprocal anti-T1SP10MN(A) (−Cys) IgG (pool) endpoint titer (T1SP10MN(A) (−Cys) [4]; Experiment 2, pooled serum n=5 Balb/c, immunized days 0 and 21, 14 days after second immunization): <1000
IgG serum titer specific for T1SP10MN(A) (−Cys), Mouse #1 (T1SP10MN(A) (−Cys) [4]; [9]): 594
IgG serum titer specific for T1SP10MN(A) (−Cys), Mouse #2 (T1SP10MN(A) (−Cys) [4]; [9]): 50
IgG serum titer specific for T1SP10MN(A) (−Cys), Mouse #3 (T1SP10MN(A) (−Cys) [4]; [9]): 50
IgG serum titer specific for T1SP10MN(A) (−Cys), Mouse #4 (T1SP10MN(A) (−Cys) [4]; [9]): 50
IgG serum titer specific for T1SP10MN(A) (−Cys), Mouse #5 (T1SP10MN(A) (−Cys) [4]; [9]): 50
Geometric Mean IgG serum titer specific for T1SP10MN(A) (−Cys), GMT (T1SP10MN(A) (−Cys) [4]; Experiment 4, n=5 Balb/c, day 41, 13 days after secondary immunization): 82
Reciprocal anti-T1SP10MN(A) (−Cys) IgG1 endpoint titer (T1SP10MN(A) (−Cys) [4]; [10]): <100
Reciprocal anti-T1SP10MN(A) (−Cys) IgG2a endpoint titer (T1SP10MN(A) (−Cys) [4]; [10]): <100
Reciprocal anti-T1SP10MN(A) (−Cys) IgG2b endpoint titer (T1SP10MN(A) (−Cys) [4]; [10]): <100
Reciprocal anti-RSV F Protein IgG1 endpoint titer, Week 3 (RSV F protein): 3,442
Reciprocal anti-RSV F Protein IgG1 endpoint titer, Week 6 (RSV F protein): 1,345,099
Reciprocal anti-RSV F Protein IgG2a endpoint titer, Week 3 (RSV F protein): 500
Reciprocal anti-RSV F Protein IgG2a endpoint titer, Week 6 (RSV F protein): 65,951
Reciprocal anti-RSV F Protein IgG endpoint titer, Week 3 (RSV F protein): 13,557
Reciprocal anti-RSV F Protein IgG endpoint titer, Week 6 (RSV F protein): 4,459,059
Vaginal lavage reciprocal anti-HIV peptide IgA endpoint titer (T1SP10MN(A) (−Cys) [5]): <10
Vaginal lavage reciprocal anti-HIV peptide IgG endpoint titer (T1SP10MN(A) (−Cys) [5]): <10
